Experimental data as given in patent US20140087995A1 (published 2014).
Numbered stars: 1 amine (or outer) side, 2 acyl side, 3 side chain; on linkers, the order of the positions; unused ones are H or OH. Bridge positions count the residues as written; N and C are the ends. Side chains are listed from the residue outwards. Ends that are not written are not given here. * marks the point of attachment. C20 diacid = O=C(O)CCCCCCCCCCCCCCCCCCC(=O)*; γGlu = O=C(O)[C@H](CCC(=O)[*:2])N[*:1]; AEEA = NCCOCCOCC(=O)O

How the values were obtained:
[1] = molecular target: T1, human calcitonin receptor (human, UniProt P30988 25-474); test: SPA radioligand competition (125I-calcitonin), membranes of BHK cells with human calcitonin receptor
T1 construct: whole, on cells; Assay used cell membranes of the transfected BHK cells; also called hCTR; hCT
T1 sequence (looked up): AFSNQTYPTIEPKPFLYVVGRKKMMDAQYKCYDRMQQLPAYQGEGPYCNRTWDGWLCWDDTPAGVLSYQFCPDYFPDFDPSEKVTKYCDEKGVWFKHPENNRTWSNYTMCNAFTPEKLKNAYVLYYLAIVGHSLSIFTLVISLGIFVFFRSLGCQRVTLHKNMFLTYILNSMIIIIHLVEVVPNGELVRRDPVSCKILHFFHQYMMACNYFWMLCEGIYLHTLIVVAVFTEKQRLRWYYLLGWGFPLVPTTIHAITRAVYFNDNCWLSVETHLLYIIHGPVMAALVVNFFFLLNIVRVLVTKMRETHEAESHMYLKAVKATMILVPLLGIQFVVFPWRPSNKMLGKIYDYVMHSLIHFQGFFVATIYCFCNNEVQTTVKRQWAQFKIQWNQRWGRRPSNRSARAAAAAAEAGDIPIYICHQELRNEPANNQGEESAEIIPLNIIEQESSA
Procedure, shortened: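 BHK hCTR membranes 35 ng/μL + SPA beads 0.05 mg/well; buffer 50 mM Hepes pH 7.4, 1 mM CaCl2, 5 mM MgCl₂, 0.1% OA, 0.02% Tween20. 120 min, 25° C., shaking. Scintillation count; IC50 by one-site binding competition.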

[2] = molecular target: T1, human calcitonin receptor; test: ratio IC50 hCTR / IC50 hAmylin-R of the two SPA competition assays; reference: human amylin receptor
Procedure, shortened: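 Scintillation proximity competition binding on cell membranes at 35 ng/μL with SPA beads, in 50 mM Hepes pH 7.4, 1 mM CaCl2, 5 mM MgCl₂, 0.1% OA, 0.02% Tween20. Incubated 120 min at 25° C with shaking. IC₅₀ from one-site competition fit.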

B1: N^ε1-[(4S)-4-carboxy-4-[[(4S)-4-carboxy-4-(19-carboxynonadecanoylamino)butanoyl]amino]butanoyl]-[Asp14,Arg17,Pro22,Pro26,Asp35]-h-amylin (peptide)
peptide: K([γGlu-γGlu-C20 diacid])CNTATCATQRLADFLRHSSNPFGAPLSSTNVGSDTY-NH2
modifications: disulfide 2-7; N-terminus assumed
SMILES: CC(C)C[C@H](NC(=O)[C@H](CCCNC(=N)N)NC(=O)[C@H](CCC(N)=O)NC(=O)[C@@H](NC(=O)[C@H](C)NC(=O)[C@@H]1CSSC[C@H](NC(=O)[C@@H](N)CCCCNC(=O)CC[C@H](NC(=O)CC[C@H](NC(=O)CCCCCCCCCCCCCCCCCCC(=O)O)C(=O)O)C(=O)O)C(=O)N[C@@H](CC(N)=O)C(=O)N[C@@H]([C@@H](C)O)C(=O)N[C@@H](C)C(=O)N[C@@H]([C@@H](C)O)C(=O)N1)[C@@H](C)O)C(=O)N[C@@H](C)C(=O)N[C@@H](CC(=O)O)C(=O)N[C@@H](Cc1ccccc1)C(=O)N[C@@H](CC(C)C)C(=O)N[C@@H](CCCNC(=N)N)C(=O)N[C@@H](Cc1c[nH]cn1)C(=O)N[C@@H](CO)C(=O)N[C@@H](CO)C(=O)N[C@@H](CC(N)=O)C(=O)N1CCC[C@H]1C(=O)N[C@@H](Cc1ccccc1)C(=O)NCC(=O)N[C@@H](C)C(=O)N1CCC[C@H]1C(=O)N[C@@H](CC(C)C)C(=O)N[C@@H](CO)C(=O)N[C@@H](CO)C(=O)N[C@H](C(=O)N[C@@H](CC(N)=O)C(=O)N[C@H](C(=O)NCC(=O)N[C@@H](CO)C(=O)N[C@@H](CC(=O)O)C(=O)N[C@H](C(=O)N[C@@H](Cc1ccc(O)cc1)C(N)=O)[C@@H](C)O)C(C)C)[C@@H](C)O
notes: Synthetic analogue; also called compound 3
Q: What does the source list for B1?
A: IC50 [1]: 19.5 nM; Ratio hCT/hAmylin binding [2]: 17.3

B2: N{Alpha-1}-[(4S)-4-carboxy-4-(19-carboxynonadecanoylamino)butanoyl]-[Glu14,Arg17,Pro21,Pro27,Lys34]-h-amylin (peptide)
peptide: {C20 diacid-γGlu}-KCNTATCATQRLAEFLRHSSPNFGAIPSSTNVGKNTY-NH2
modifications: disulfide 2-7
SMILES: CC[C@H](C)[C@H](NC(=O)[C@H](C)NC(=O)CNC(=O)[C@H](Cc1ccccc1)NC(=O)[C@H](CC(N)=O)NC(=O)[C@@H]1CCCN1C(=O)[C@H](CO)NC(=O)[C@H](CO)NC(=O)[C@H](Cc1c[nH]cn1)NC(=O)[C@H](CCCNC(=N)N)NC(=O)[C@H](CC(C)C)NC(=O)[C@H](Cc1ccccc1)NC(=O)[C@H](CCC(=O)O)NC(=O)[C@H](C)NC(=O)[C@H](CC(C)C)NC(=O)[C@H](CCCNC(=N)N)NC(=O)[C@H](CCC(N)=O)NC(=O)[C@@H](NC(=O)[C@H](C)NC(=O)[C@@H]1CSSC[C@H](NC(=O)[C@H](CCCCN)NC(=O)CC[C@H](NC(=O)CCCCCCCCCCCCCCCCCCC(=O)O)C(=O)O)C(=O)N[C@@H](CC(N)=O)C(=O)N[C@@H]([C@@H](C)O)C(=O)N[C@@H](C)C(=O)N[C@@H]([C@@H](C)O)C(=O)N1)[C@@H](C)O)C(=O)N1CCC[C@H]1C(=O)N[C@@H](CO)C(=O)N[C@@H](CO)C(=O)N[C@H](C(=O)N[C@@H](CC(N)=O)C(=O)N[C@H](C(=O)NCC(=O)N[C@@H](CCCCN)C(=O)N[C@@H](CC(N)=O)C(=O)N[C@H](C(=O)N[C@@H](Cc1ccc(O)cc1)C(N)=O)[C@@H](C)O)C(C)C)[C@@H](C)O
notes: Synthetic analogue; also called compound 36
Q: What does the source list for B2?
A: IC50 [1]: 6.3 nM; Ratio hCT/hAmylin binding [2]: 15.7

B3: N^α1-[(4S)-4-carboxy-4-(19-carboxynonadecanoylamino)butanoyl]-[Glu14,Arg17,Pro21,Pro25,Pro28,Pro29]-h-amylin (peptide)
peptide: {C20 diacid-γGlu}-KCNTATCATQRLAEFLRHSSPNFGPILPPTNVGSNTY-NH2
modifications: disulfide 2-7
SMILES: CC[C@H](C)[C@H](NC(=O)[C@@H]1CCCN1C(=O)CNC(=O)[C@H](Cc1ccccc1)NC(=O)[C@H](CC(N)=O)NC(=O)[C@@H]1CCCN1C(=O)[C@H](CO)NC(=O)[C@H](CO)NC(=O)[C@H](Cc1c[nH]cn1)NC(=O)[C@H](CCCNC(=N)N)NC(=O)[C@H](CC(C)C)NC(=O)[C@H](Cc1ccccc1)NC(=O)[C@H](CCC(=O)O)NC(=O)[C@H](C)NC(=O)[C@H](CC(C)C)NC(=O)[C@H](CCCNC(=N)N)NC(=O)[C@H](CCC(N)=O)NC(=O)[C@@H](NC(=O)[C@H](C)NC(=O)[C@@H]1CSSC[C@H](NC(=O)[C@H](CCCCN)NC(=O)CC[C@H](NC(=O)CCCCCCCCCCCCCCCCCCC(=O)O)C(=O)O)C(=O)N[C@@H](CC(N)=O)C(=O)N[C@@H]([C@@H](C)O)C(=O)N[C@@H](C)C(=O)N[C@@H]([C@@H](C)O)C(=O)N1)[C@@H](C)O)C(=O)N[C@@H](CC(C)C)C(=O)N1CCC[C@H]1C(=O)N1CCC[C@H]1C(=O)N[C@H](C(=O)N[C@@H](CC(N)=O)C(=O)N[C@H](C(=O)NCC(=O)N[C@@H](CO)C(=O)N[C@@H](CC(N)=O)C(=O)N[C@H](C(=O)N[C@@H](Cc1ccc(O)cc1)C(N)=O)[C@@H](C)O)C(C)C)[C@@H](C)O
notes: Synthetic analogue; also called compound 6
Q: What does the source list for B3?
A: IC50 [1]: 19.9 nM; Ratio hCT/hAmylin binding [2]: 20

B4: N^ε1-[2-[2-[2-[[(4S)-4-carboxy-4-(19-carboxynonadecanoylamino)butanoyl]amino]ethoxy]ethoxy]acetyl]-[Arg17,Pro21,Pro27]-h-amylin (peptide)
peptide: K([AEEA-γGlu-C20 diacid])CNTATCATQRLANFLRHSSPNFGAIPSSTNVGSNTY-NH2
modifications: disulfide 2-7; N-terminus assumed
SMILES: CC[C@H](C)[C@H](NC(=O)[C@H](C)NC(=O)CNC(=O)[C@H](Cc1ccccc1)NC(=O)[C@H](CC(N)=O)NC(=O)[C@@H]1CCCN1C(=O)[C@H](CO)NC(=O)[C@H](CO)NC(=O)[C@H](Cc1c[nH]cn1)NC(=O)[C@H](CCCNC(=N)N)NC(=O)[C@H](CC(C)C)NC(=O)[C@H](Cc1ccccc1)NC(=O)[C@H](CC(N)=O)NC(=O)[C@H](C)NC(=O)[C@H](CC(C)C)NC(=O)[C@H](CCCNC(=N)N)NC(=O)[C@H](CCC(N)=O)NC(=O)[C@@H](NC(=O)[C@H](C)NC(=O)[C@@H]1CSSC[C@H](NC(=O)[C@@H](N)CCCCNC(=O)COCCOCCNC(=O)CC[C@H](NC(=O)CCCCCCCCCCCCCCCCCCC(=O)O)C(=O)O)C(=O)N[C@@H](CC(N)=O)C(=O)N[C@@H]([C@@H](C)O)C(=O)N[C@@H](C)C(=O)N[C@@H]([C@@H](C)O)C(=O)N1)[C@@H](C)O)C(=O)N1CCC[C@H]1C(=O)N[C@@H](CO)C(=O)N[C@@H](CO)C(=O)N[C@H](C(=O)N[C@@H](CC(N)=O)C(=O)N[C@H](C(=O)NCC(=O)N[C@@H](CO)C(=O)N[C@@H](CC(N)=O)C(=O)N[C@H](C(=O)N[C@@H](Cc1ccc(O)cc1)C(N)=O)[C@@H](C)O)C(C)C)[C@@H](C)O
notes: Synthetic analogue; also called compound 41
Q: How did the IC50 [1] turn out when B4 was run?
A: 21.3 nM

Q: What about the “Ratio hCT/hAmylin binding” value [2] of the same binder?
A: 49.9

B5: N^ε1-[2-[2-[2-(19-carboxynonadecanoylamino)ethoxy]ethoxy]acetyl]-[Arg17,Pro21,Pro27]-h-amylin (peptide)
peptide: K([AEEA-C20 diacid])CNTATCATQRLANFLRHSSPNFGAIPSSTNVGSNTY-NH2
modifications: disulfide 2-7; N-terminus assumed
SMILES: CC[C@H](C)[C@H](NC(=O)[C@H](C)NC(=O)CNC(=O)[C@H](Cc1ccccc1)NC(=O)[C@H](CC(N)=O)NC(=O)[C@@H]1CCCN1C(=O)[C@H](CO)NC(=O)[C@H](CO)NC(=O)[C@H](Cc1c[nH]cn1)NC(=O)[C@H](CCCNC(=N)N)NC(=O)[C@H](CC(C)C)NC(=O)[C@H](Cc1ccccc1)NC(=O)[C@H](CC(N)=O)NC(=O)[C@H](C)NC(=O)[C@H](CC(C)C)NC(=O)[C@H](CCCNC(=N)N)NC(=O)[C@H](CCC(N)=O)NC(=O)[C@@H](NC(=O)[C@H](C)NC(=O)[C@@H]1CSSC[C@H](NC(=O)[C@@H](N)CCCCNC(=O)COCCOCCNC(=O)CCCCCCCCCCCCCCCCCCC(=O)O)C(=O)N[C@@H](CC(N)=O)C(=O)N[C@@H]([C@@H](C)O)C(=O)N[C@@H](C)C(=O)N[C@@H]([C@@H](C)O)C(=O)N1)[C@@H](C)O)C(=O)N1CCC[C@H]1C(=O)N[C@@H](CO)C(=O)N[C@@H](CO)C(=O)N[C@H](C(=O)N[C@@H](CC(N)=O)C(=O)N[C@H](C(=O)NCC(=O)N[C@@H](CO)C(=O)N[C@@H](CC(N)=O)C(=O)N[C@H](C(=O)N[C@@H](Cc1ccc(O)cc1)C(N)=O)[C@@H](C)O)C(C)C)[C@@H](C)O
notes: Synthetic analogue; also called compound 43
Q: What does the source list for B5?
A: IC50 [1]: 2.64 nM; Ratio hCT/hAmylin binding [2]: 34.7
